From patent US20160185837A1 (Medimmune Limited, priority 2013, published 2016)
Where two headings read alike, the source gives them in different places.

Legend:
Format in all cases: cell-based
[1] = target: T1, mouse GLP-1 receptor (mGLP-1r) (Mus musculus, UniProt O35659); assay: BSA-cAMP assay, cells expressing mouse GLP-1 receptor; details: BSA-cAMP assay, read-out: mGLP1r cAMP activity EC50
T1 construct: expressed in transfected cells; host or cells: HEK293s or CHO cells
T1 sequence (O35659 22-463): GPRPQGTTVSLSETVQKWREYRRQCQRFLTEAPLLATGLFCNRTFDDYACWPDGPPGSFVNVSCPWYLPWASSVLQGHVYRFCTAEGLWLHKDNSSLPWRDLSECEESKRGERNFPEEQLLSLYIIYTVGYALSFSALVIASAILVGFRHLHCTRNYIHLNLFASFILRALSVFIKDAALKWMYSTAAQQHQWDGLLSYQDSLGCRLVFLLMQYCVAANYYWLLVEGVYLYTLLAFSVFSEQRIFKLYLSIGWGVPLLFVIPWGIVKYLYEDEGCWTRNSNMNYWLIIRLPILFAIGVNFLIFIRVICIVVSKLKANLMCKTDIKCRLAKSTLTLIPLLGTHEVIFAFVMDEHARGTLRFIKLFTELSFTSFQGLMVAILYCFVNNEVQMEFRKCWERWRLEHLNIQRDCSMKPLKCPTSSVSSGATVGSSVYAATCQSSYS
How it was run: (§1)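 EC50 is the midpoint of an unconstrained 4-parameter logistic fit to HTRF cAMP data, expressed as percent of maximal native agonist response, from two separate occasions. Rodent (mouse, rat) GLP-1R- or GIPR-expressing cells were incubated with compound 30 min at room temperature in 0.1% BSA medium, in duplicate.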

[2] = target: T2, human GLP-1 receptor (hGLP-1r) (Homo sapiens, UniProt P43220); assay: BSA-cAMP assay, cells expressing human GLP-1 receptor; details: BSA-cAMP assay, read-out: hGLP1r cAMP activity EC50
T2 construct: expressed in transfected cells
T2 sequence (P43220 24-463): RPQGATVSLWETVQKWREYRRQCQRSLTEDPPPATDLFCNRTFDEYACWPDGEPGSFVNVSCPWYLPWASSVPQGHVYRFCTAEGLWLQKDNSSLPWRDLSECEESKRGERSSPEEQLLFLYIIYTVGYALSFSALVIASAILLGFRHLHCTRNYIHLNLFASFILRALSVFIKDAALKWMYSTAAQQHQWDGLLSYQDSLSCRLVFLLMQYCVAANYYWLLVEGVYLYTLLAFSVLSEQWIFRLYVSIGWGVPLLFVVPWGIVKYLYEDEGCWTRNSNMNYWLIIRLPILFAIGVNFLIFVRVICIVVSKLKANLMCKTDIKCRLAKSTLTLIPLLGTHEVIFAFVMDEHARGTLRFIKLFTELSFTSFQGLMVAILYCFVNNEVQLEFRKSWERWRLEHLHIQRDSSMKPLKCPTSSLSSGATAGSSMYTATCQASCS
How it was run: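 EC50 came from an unconstrained 4-parameter logistic fit of HTRF cAMP data expressed as percent of maximal native agonist activation, tested on two occasions. Thawed receptor-expressing cells (hGLP-1r, hGIPr at 0.5×10^5 cells/ml) treated 30 min at room temperature in 0.1% BSA-containing medium; two distinct hGIPr lines.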

[3] = target: T3, mouse GIP receptor (mGIPr) (Mus musculus, UniProt Q0P543); assay: BSA-cAMP assay, cells expressing mouse GIP receptor; details: BSA-cAMP assay, read-out: mGIPr cAMP activity EC50
T3 construct: expressed in transfected cells; host or cells: HEK293s or CHO cells
T3 sequence (Q0P543 19-460): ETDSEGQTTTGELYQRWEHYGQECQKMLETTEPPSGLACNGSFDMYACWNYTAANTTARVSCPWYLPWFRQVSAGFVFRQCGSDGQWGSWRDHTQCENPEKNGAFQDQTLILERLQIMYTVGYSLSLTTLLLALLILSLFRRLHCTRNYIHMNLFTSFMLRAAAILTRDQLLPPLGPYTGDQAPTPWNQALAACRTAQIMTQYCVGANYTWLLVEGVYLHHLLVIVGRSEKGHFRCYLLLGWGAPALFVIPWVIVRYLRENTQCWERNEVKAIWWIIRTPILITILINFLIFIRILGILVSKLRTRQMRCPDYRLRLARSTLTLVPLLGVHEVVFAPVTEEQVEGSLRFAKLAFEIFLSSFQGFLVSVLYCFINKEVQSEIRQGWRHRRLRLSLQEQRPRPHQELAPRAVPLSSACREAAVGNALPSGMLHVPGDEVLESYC
How it was run: as §1

rat GIP receptor (rGIPr) = target: T4, rat GIP receptor (rGIPr) (Rattus norvegicus, UniProt P43219); assay: BSA-cAMP assay, cells expressing rat GIP receptor; details: BSA-cAMP assay, read-out: rGIPr cAMP activity EC50
T4 construct: expressed in transfected cells; host or cells: HEK293s or CHO cells
T4 sequence (P43219 19-455): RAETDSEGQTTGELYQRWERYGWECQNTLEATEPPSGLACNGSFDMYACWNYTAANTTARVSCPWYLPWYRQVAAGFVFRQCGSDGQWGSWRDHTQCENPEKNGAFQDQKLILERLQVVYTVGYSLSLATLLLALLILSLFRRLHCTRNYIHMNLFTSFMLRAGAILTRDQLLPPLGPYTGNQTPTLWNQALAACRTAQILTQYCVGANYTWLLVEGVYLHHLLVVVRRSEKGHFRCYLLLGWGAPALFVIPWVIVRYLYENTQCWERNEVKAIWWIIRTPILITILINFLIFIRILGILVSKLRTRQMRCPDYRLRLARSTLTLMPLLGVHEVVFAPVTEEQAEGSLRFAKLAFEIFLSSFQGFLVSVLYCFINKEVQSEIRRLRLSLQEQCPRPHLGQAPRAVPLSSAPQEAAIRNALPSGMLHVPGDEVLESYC
How it was run: as §1

[4] = target: T5, human glucagon receptor (GCGr) (Homo sapiens, UniProt P47871); assay: BSA-cAMP assay, cells expressing human glucagon receptor
T5 construct: expressed in transfected cells; host or cells: HEK293s or CHO cells
T5 sequence (P47871 26-477): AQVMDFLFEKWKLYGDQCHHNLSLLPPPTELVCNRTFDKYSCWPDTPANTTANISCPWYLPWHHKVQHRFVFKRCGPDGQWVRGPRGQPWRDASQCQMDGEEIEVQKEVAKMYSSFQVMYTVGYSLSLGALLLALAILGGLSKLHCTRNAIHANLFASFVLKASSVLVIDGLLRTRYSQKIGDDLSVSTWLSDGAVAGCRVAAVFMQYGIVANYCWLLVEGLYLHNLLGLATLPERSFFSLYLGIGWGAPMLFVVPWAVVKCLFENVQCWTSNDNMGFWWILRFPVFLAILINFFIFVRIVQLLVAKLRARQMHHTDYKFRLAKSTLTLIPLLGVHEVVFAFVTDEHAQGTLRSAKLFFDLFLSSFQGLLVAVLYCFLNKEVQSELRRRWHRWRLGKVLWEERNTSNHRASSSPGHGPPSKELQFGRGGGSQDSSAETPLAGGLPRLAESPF

[5] = Batch 1, read-out: hGCGr cAMP activity EC50
[6] = Batch 2, read-out: hGCGr cAMP activity EC50

| Substance | EC50 ([1]; Batch 1) [nM] | EC50 ([2]; Batch 1) [nM] | EC50 ([2]; Batch 2) [nM] | EC50 ([3]; Batch 1) [nM] | EC50 (rat GIP receptor (rGIPr); Batch 1) [nM] | EC50 [4, 5] [nM] | EC50 [4, 6] [nM] | EC50 ([1]; Batch 2) [nM] | EC50 ([3]; Batch 2) [nM] | EC50 (rat GIP receptor (rGIPr); Batch 2) [nM] |
| --- | --- | --- | --- | --- | --- | --- | --- | --- | --- | --- |
| IP320 (YSEGTFTSDYAAAAEAAAAAAFAAWLAAAAGGGGGSGGGGSGGGGSGGGGSACPPC) | 2500 | 160 | 260 | > 3930 | 130 | 3800 | 3800 |  |  |  |
| IP396 (YSEGTFTSDYSKLLERQAIDEFIAWLLKGGGGGGGSGGGGSGGGGSGGGGSACPPC) | 1.2 | 0.11 | 0.11 | 0.28 | 0.19 | 330 | 250 | 2.5 | 0.78 | 0.014 |
| IP412: Fc fusion, IgG1-TM, SEQ ID NO:387; agonist peptide YSEGTFTSDYSKLLEEEANRLFIEWLLAGG (YSEGTFTSDYSKLLEEEANRLFIEWLLAGGGGGGSGGGGSGGGGSGGGGSATHTCPPC) | 1.2 | 0.073 |  | 0.4 | 0.018 | > 440 |  |  |  |  |
